Measurements: publication PMC11995519, “Structural insights into the human NuA4/TIP60 acetyltransferase and chromatin remodeling complex” (Science (New York, N.Y.), 2024)

Molecular target: T1, transformation/transcription domain-associated protein (TRRAP) (human (endogenous in K562), UniProt Q9Y4A5 1-3859)
T1 construct: transformation/transcription domain-associated protein (TRRAP), human; also called TRRAP module; source: endogenous, K562 extract; co-purified with tagged EP400 constructs
Experiment: cryo-EM structure; TRRAP-EP400Cter purified by the tagged EP400 truncation 2188-3159, glutaraldehyde cross-linked; 3.4 Å
Details: both partners purified

T1 sequence (Q9Y4A5 whole entry, the tested form may be a part): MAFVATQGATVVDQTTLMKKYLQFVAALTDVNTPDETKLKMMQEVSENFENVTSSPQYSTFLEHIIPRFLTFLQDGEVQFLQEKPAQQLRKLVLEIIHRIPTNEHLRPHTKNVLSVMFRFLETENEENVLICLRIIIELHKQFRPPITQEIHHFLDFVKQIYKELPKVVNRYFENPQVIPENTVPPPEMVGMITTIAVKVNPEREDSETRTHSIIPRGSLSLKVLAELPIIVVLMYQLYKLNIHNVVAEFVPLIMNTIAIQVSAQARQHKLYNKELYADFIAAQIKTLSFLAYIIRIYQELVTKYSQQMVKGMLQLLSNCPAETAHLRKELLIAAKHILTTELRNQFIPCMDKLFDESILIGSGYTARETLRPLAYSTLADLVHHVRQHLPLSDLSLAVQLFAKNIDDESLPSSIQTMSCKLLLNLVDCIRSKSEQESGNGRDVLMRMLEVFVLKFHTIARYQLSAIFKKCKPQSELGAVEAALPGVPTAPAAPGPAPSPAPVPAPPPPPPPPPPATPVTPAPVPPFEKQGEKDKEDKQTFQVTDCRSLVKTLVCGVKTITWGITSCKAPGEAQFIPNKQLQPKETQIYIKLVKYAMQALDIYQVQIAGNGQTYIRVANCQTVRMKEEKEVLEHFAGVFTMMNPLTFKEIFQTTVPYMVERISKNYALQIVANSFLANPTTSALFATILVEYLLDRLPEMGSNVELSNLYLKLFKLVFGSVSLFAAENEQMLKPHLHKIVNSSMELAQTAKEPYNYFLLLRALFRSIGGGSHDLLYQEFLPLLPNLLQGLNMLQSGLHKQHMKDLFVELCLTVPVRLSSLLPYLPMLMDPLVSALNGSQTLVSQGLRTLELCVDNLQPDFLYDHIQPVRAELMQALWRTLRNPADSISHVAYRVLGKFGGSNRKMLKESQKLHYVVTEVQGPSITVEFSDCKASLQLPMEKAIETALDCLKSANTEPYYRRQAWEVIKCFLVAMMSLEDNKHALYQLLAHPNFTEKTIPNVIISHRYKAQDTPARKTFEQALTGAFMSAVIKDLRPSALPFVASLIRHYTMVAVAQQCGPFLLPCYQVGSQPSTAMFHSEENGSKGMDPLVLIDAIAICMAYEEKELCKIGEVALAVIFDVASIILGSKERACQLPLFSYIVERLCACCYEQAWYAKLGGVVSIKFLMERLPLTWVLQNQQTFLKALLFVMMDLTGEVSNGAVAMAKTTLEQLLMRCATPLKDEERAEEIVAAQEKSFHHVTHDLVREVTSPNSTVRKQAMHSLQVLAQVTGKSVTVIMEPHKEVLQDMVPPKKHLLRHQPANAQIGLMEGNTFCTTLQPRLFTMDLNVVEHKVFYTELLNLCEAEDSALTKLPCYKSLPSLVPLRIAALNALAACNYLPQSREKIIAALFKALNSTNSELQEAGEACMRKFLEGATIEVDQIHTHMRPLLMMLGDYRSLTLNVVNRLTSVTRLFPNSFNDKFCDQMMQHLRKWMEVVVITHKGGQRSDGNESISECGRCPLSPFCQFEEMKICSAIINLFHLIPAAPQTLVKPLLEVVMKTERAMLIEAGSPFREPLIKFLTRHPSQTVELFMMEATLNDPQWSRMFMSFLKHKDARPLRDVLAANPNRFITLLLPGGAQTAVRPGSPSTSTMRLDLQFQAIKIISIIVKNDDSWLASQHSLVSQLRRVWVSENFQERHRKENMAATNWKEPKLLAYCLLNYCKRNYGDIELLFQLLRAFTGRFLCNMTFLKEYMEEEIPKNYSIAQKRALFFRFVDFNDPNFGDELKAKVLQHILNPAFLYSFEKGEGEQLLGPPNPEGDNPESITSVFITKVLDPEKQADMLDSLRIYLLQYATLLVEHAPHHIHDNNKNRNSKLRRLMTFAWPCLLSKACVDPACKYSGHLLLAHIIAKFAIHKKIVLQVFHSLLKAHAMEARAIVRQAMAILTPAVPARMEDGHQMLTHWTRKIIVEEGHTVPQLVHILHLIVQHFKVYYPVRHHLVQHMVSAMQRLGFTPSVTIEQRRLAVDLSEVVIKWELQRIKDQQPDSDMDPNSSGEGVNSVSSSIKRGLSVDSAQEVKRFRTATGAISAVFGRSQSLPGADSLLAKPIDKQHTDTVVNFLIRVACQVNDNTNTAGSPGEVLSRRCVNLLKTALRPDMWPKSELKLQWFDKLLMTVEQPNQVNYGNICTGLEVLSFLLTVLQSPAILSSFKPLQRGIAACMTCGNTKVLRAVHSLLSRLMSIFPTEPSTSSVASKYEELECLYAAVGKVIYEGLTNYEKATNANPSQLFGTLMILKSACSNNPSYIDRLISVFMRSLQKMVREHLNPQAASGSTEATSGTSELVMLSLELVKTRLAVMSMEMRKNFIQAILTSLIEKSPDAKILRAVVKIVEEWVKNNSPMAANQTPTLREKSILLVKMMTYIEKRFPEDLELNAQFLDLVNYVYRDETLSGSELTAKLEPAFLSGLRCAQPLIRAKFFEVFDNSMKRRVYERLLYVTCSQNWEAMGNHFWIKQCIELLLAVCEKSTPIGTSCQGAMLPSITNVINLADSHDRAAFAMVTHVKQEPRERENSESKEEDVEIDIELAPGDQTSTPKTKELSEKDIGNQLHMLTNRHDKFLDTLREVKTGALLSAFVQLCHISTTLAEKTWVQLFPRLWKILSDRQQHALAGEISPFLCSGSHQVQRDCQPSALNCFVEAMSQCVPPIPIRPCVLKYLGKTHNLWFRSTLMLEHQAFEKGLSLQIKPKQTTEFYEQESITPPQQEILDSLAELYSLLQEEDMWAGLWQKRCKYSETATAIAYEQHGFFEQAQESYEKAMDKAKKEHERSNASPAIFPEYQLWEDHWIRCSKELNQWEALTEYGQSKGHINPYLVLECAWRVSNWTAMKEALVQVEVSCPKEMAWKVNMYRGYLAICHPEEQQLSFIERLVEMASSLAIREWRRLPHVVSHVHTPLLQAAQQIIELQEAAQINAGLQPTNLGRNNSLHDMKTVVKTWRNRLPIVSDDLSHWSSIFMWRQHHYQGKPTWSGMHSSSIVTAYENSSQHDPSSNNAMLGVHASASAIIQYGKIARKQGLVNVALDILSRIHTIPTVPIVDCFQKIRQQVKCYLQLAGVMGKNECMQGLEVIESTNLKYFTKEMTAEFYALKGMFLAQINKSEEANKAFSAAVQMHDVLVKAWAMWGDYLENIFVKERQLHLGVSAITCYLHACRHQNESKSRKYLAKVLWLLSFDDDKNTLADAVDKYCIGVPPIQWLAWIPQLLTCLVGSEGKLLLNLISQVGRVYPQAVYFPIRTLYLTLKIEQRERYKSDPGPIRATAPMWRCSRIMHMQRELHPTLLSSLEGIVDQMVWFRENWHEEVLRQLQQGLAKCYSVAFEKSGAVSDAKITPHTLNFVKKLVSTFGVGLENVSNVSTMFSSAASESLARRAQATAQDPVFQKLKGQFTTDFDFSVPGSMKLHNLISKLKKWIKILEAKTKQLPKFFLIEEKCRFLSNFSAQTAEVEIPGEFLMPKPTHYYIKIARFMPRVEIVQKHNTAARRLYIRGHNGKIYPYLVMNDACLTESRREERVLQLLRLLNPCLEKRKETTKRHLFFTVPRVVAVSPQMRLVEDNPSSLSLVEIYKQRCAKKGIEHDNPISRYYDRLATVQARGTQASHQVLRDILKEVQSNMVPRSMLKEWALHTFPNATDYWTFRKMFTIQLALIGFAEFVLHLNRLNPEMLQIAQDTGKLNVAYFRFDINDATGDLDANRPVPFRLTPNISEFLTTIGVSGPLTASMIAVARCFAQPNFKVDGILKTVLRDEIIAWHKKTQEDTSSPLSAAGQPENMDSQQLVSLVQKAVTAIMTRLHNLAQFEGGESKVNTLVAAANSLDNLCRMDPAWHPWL

binding result: binds
B1: tagged truncation of EP400 containing just the C terminus after the ATPase domain (amino acid 2188 to 3159) (domain or fragment, human, UniProt Q96L91 2188-3159, looked up)
chain: AVMTAVRAWEFWNLKTLQEREARLRLEQEEAELLTYTREDAYSMEYVYEDVDGQTEVMPLWTPPTPPQDDSDIYLDSVMCLMYEATPIPEAKLPPVYVRKERKRHKTDPSAAGRKKKQRHGEAVVPPRSLFDRATPGLLKIRREGKEQKKNILLKQQVPFAKPLPTFAKPTAEPGQDNPEWLISEDWALLQAVKQLLELPLNLTIVSPAHTPNWDLVSDVVNSCSRIYRSSKQCRNRYENVIIPREEGKSKNNRPLRTSQIYAQDENATHTQLYTSHFDLMKMTAGKRSPPIKPLLGMNPFQKNPKHASVLAESGINYDKPLPPIQVASLRAERIAKEKKALADQQKAQQPAVAQPPPPQPQPPPPPQQPPPPLPQPQAAGSQPPAGPPAVQPQPQPQPQTQPQPVQAPAKAQPAITTGGSAAVLAGTIKTSVTGTSMPTGAVSGNVIVNTIAGVPAATFQSINKRLASPVAPGALTTPGGSAPAQVVHTQPPPRAVGSPATATPDLVSMATTQGVRAVTSVTASAVVTTNLTPVQTPARSLVPQVSQATGVQLPGKTITPAHFQLLRQQQQQQQQQQQQQQQQQQQQQQQQQQQQQTTTTSQVQVPQIQGQAQSPAQIKAVGKLTPEHLIKMQKQKLQMPPQPPPPQAQSAPPQPTAQVQVQTSQPPQQQSPQLTTVTAPRPGALLTGTTVANLQVARLTRVPTSQLQAQGQMQTQAPQPAQVALAKPPVVSVPAAVVSSPGVTTLPMNVAGISVAIGQPQKAAGQTVVAQPVHMQQLLKLKQQAVQQQKAIQPQAAQGPAAVQQKITAQQITTPGAQQKVAYAAQPALKTQFLTTPISQAQKLAGAQQVQTQIQVAKLPQVVQQQTPVASIQQVASASQQASPQTVALTQATAAGQQVQMIPAVTATAQVVQQKLIQQQVVTTASAPLQTPGAPNPAQVPASSDSPSQQPKLQMRVPAVRLKTPTKPPCQ
notes: 137 residues (SANT and HD domains) are resolved; also called EP400Cter; C-terminal segment of EP400; source: new cell line expressing the tagged truncation
